Two molecules from patent US20050026828A1 can be followed below.

The target in experiment [1] is human prokineticin receptor 1 (human) (UniProt Q8TCW9). As to the kind of experiment: cell-based or functional assay.
Experiment [2] deals with human prokineticin receptor 2 (human) (UniProt Q8NFJ6). The experiment is described as follows: cell-based or functional assay.
Chain of UniProt Q8NFJ6 (Q8NFJ6 whole entry): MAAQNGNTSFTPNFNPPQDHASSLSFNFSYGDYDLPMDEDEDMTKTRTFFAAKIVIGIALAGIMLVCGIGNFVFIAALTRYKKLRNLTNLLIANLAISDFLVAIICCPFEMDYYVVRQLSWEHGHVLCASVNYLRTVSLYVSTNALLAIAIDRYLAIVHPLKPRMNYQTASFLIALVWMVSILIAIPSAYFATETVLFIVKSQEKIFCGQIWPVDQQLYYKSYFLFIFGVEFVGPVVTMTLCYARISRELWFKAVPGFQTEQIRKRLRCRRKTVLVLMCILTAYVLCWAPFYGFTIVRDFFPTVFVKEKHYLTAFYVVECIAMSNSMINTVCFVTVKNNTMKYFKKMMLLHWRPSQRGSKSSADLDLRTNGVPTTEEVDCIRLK

Chain of UniProt Q8TCW9 (Q8TCW9 whole entry I255M/S256T): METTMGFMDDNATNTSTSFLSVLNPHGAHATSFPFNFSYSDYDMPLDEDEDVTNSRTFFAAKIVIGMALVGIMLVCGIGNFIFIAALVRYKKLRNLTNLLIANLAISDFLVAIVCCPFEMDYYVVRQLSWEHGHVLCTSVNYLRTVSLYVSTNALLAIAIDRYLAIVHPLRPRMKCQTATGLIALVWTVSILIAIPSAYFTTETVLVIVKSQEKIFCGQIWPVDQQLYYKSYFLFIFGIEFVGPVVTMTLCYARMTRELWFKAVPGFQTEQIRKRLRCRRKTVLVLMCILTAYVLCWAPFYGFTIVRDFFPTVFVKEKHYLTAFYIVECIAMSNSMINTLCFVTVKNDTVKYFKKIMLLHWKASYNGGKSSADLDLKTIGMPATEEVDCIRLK

B1: Met PK1 (ligand)
chain: MAVITGACERDVQCGAGTCCAISLWLRGLRMCTPLGREGEECHPGSHKVPFFRKRKHHTCPCLPNLLCSRFPDGRYRCSMDLKNINF
Turning to B1, in experiment [1], the Antagonistic Activity of PK mutants (Calcium Mobilization Assay), ligand PK1 is 9 nM and the Antagonistic Activity of PK mutants (Calcium Mobilization Assay), ligand PK2 came out at 90 nM. Moreover, in experiment [2], the Antagonistic Activity of PK mutants (Calcium Mobilization Assay), ligand PK1 was found to be 15 nM and the Antagonistic Activity of PK mutants (Calcium Mobilization Assay), ligand PK2 worked out at 30 nM.

B2: MV PK1 (ligand)
chain: MVITGACERDVQCGAGTCCAISLWLRGLRMCTPLGREGEECHPGSHKVPFFRKRKHHTCPCLPNLLCSRFPDGRYRCSMDLKNINF
Take B2: the values for the Antagonistic Activity of PK mutants (Calcium Mobilization Assay), ligand PK1 in experiment [1] and in experiment [2] were 6 nM and 16 nM, respectively. In addition, the Antagonistic Activity of PK mutants (Calcium Mobilization Assay), ligand PK2 in experiment [1] turned out to be 110 nM; in experiment [2] it was 29 nM.
